Consider three substances from paper PMC9666535.

pKd: −log10 of the molar value.

As a reminder, the pKd is the negative decadic logarithm of the Kd, by convention in mol/L.

Data set [1] has as its target FEN1 D181A•PCNA complex prebound on the nick product (FEN1•PCNA•NP) (human) (UniProt P39748). The experiment in a line: other fluorescence titration; apparent; FeSQ quenching of Cy3 on the DNA: FEN1 D181A (250 nM) prebound to PCNA-loaded nick DNA (Sub#28), Polδ titrated; quadratic fit (Eq. 1); 22 °C, 50 mM HEPES-KOH pH 7.5, 100 mM KCl, 10 mM MgCl2, 1 mM ATP.
For the next data set, the target named is PCNA (Homo sapiens) (UniProt P12004). The settings on record: cited from earlier work.
Another data set deals with PCNA WT (UniProt P12004). Kind of data set: single-molecule FRET of DNA bending (TIRF); internally labeled double flap DNA on the surface, PCNA pre-loaded by RFC and trapped on it (Sub#12) or absent (Sub#13); Polδ Exo^− 250 nM in solution; 50 ms resolution; 50 mM HEPES-KOH pH 7.5, 100 mM KCl, 10 mM MgCl2. The conditions noted are these: other: single-molecule FRET of DNA bending (TIRF).
Sequence of PCNA WT (P12004 whole entry): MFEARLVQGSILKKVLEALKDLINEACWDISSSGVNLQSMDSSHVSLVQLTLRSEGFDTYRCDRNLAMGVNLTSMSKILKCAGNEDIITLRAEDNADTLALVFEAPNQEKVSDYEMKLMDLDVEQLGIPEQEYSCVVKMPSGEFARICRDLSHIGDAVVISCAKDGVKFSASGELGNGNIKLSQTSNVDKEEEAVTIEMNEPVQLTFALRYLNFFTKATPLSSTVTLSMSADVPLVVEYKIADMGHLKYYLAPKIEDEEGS

Sequence of FEN1 (P39748 whole entry): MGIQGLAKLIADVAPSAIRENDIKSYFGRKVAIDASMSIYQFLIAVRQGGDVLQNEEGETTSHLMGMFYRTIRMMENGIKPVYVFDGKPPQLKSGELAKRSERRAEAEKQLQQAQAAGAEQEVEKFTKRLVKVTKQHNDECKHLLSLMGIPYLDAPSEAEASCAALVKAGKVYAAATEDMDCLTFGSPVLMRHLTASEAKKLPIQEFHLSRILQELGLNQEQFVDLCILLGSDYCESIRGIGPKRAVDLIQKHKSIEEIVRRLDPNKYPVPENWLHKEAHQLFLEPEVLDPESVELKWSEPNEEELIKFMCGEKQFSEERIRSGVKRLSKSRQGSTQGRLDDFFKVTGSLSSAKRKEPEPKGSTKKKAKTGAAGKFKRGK
Sequence of PCNA (Homo sapiens) (P12004 whole entry): as the sequence (P12004 whole entry) above
Sequence of FEN1 D181A•PCNA complex prebound on the nick product (FEN1•PCNA•NP) (human) (P39748 2-380 D181A, chain 1 of 2): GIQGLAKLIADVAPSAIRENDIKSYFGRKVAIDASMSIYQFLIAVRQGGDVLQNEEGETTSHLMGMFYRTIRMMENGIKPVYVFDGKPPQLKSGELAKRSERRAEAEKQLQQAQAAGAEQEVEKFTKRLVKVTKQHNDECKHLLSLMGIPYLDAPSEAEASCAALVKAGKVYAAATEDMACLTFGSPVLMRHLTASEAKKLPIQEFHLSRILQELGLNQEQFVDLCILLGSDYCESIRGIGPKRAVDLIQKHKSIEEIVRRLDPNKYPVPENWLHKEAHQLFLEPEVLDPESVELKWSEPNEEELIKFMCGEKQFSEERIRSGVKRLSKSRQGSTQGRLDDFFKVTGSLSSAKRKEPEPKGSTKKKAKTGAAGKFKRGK
Sequence of FEN1 D181A•PCNA complex prebound on the nick product (FEN1•PCNA•NP) (human) (P12004 whole entry, chain 2 of 2, further chain): as the sequence (P12004 whole entry) above

As for “Polδ Exo^− (D515V in p125) (from UniProt P28340 1-1107; Q9HCU8 1-107) (complex)”, in data set [1], the pKd is 8.35.
As for FEN1 (from UniProt P39748), the pKd with PCNA (Homo sapiens) is 7.15.
For the substance Polδ Exo^− (D515V in p125), the “assembly yield of the Polδ•PCNA complex” value with PCNA WT is reported as “the assembly yield was only ~70%”.
